# According to patent US20130184223A1, “METHODS AND COMPOSITIONS RELATED TO MODULATING AUTOPHAGY” (UNIVERSITY OF ROCHESTER, priority 2010, published 2013):
# “Also recorded” adds a separate entry of the source.
# B1: Rab5a DN: 3× Flag-tagged Rab5a S34N dominant negative mutant, inhibitor of endocytosis (protein, UniProt P20339 1-215, looked up, variant S34N)
# Ras-related protein Rab-5A: MASRGATRPNGPNTGNKICQFKLVLLGESAVGKNSLVLRFVKGQFHEFQESTIGAAFLTQTVCLDDTTVKFEIWDTAGQERYHSLAPMYYRGAQAAIVVYDITNEESFARAKNWVKELQRQASPNIVIALSGNKADLANKRAVDFQEAQSYADDNSLLFMETSAKTSMNVNEIFMAIAKKLPKNEPQNPGANSARGRGVDLTEPTQPTRNQCCSN
# modifications: 3x Flag tag
# B2: Atg12: over-expressed 3× Flag-tagged Atg12, a gene required for autophagosomal formation (protein, UniProt O94817 1-140, looked up)
# Ubiquitin-like protein ATG12: MAEEPQSVLQLPTSIAAGGEGLTDVSPETTTPEPPSSAAVSPGTEEPAGDTKKKIDILLKAVGDTPIMKTKKWAVERTRTIQGLIDFIKKFLKLVASEQLFIYVNQSFAPSPDQEVGTLYECFGSDGKLVLHYCKSQAWG
# modifications: 3x Flag tag
# notes: over-expressed 3× Flag-tagged Atg12, a gene required for autophagosomal formation
# Experiments:
# [1] = test system: mp53/Ras transformed and CAPAN-2 cells; experiment: Endocytosis of fluorescently labeled dextran; format: cell-based; details: 50 uM Alexa-488 dextran for 1 hr; confocal microscopy and FACS
# Description: (§1) Moreover, the molecular machinery employed in autophagosomal/lysosomal fusion, such as Rab7, is required for endosomal/lysosomal fusion, which is also required for tumor formation in some cancers.
# Cells were plated at 2.5×10^5 cells for vector and Rab5a DN mp53/Ras cells on collagen-I coated 10 cm dishes, and 7.5×10^5 cells for vector and Rab5a DN CAPAN-2 cells on 10 cm dishes and allowed to proliferate for two days in maintenance media. Cells were then treated with 50 uM of Alexa-488 labeled 10,000 MW dextran (Invitrogen) for 1 hr in maintenance medium. The cells were then washed 3× with PBS and trypsinized. Cells were pelleted, resuspended in PBS with 1% BSA, transferred to FACS tubes (Falcon), and placed on ice. DAPI was added to a final concentration of […] and cells were FACS analyzed for Alexa-488 signal, with DAPI exclusion of dead cells. To image cells mp53/Ras and CAPAN-2 cells infected with vector control virus or stabily expressing Rab5a DN were plated onto glass coverslips as described in the immunofluorescent staining of cells section. Cells were then treated with 50 uM of Alexa-488 labeled 10,000 MW dextran for 1 hr in maintenance medium. The media containing dextran was removed and the cells were washed 3 times with PBS. […]
# [2] = test system: mp53/Ras transformed cells and CAPAN-2 cells; experiment: Immunoblot of p62 and LC3 in cells expressing autophagy modulators; format: cell-based; details: cells expressing the protein vs vector control
# Excerpt: Thus, the effects of Plac8 KD on both tumor formation and autophagy can be suppressed by constitutive activation of Rab7.
# as §1
# To determine if the Plac8 KD-induced loss of tumor formation is specifically due to a loss of autophagy completion, Atg12, a gene required for autophagosomal formation, was overexpressed in Plac8 KD cells.
# YAMC, vector, mp53, Ras, and mp53/Ras cells were cultured for two days at 39 C in RPMI with 10% FBS medium and gentamicin in collagen-I coated 15 cm dishes. HT-29, CAPAN-2, PANC-1 and Panc 10.05 cells were cultured for two days at 37 C in maintenance media without selective antibiotics on 15 cm dishes. […] Protein concentration was quantified using Bradford reagent (BioRad) and a Genesys 1 0UV spectrophotometer (Spectronic Unicam). […]
# [3] = test system: mp53/Ras transformed cells and CAPAN-2 cells; experiment: Immunocompromised mouse tumorigenicity assay, cells expressing autophagy modulators; format: in vivo; details: cells expressing the protein or shRNA vs vector control, 5×10^5 cells per injection, 4 weeks mp53/Ras, 5 weeks CAPAN-2
# Description: To determine whether cooperative up-regulation of autophagy is required for tumorigenesis Atg12, a gene involved in autophagosome formation, was knocked-down using two independent constructs in mp53/RasV12 and Capan-2 cells. In addition, a genetic rescue experiment was performed by introducing a shRNA resistant form of ATG12 into these cell backgrounds to test for ATG12 specificity of the observed effects. Tumor formation was inhibited by Atg12 KD in both mp53/Ras and CAPAN-2 cell lines and was rescued by expression of the exogenous shRNA resistant Atg12 (FIG. 4.5a, 4.5c).
# Cells were cultured on 15 cm dishes for two days without selective antibiotics at 39 C for mp53/Ras cells and at 37 C for HT-29, CAPAN-2, PANC-1, and 5 Panc10.05. Cells were plated at the following densities: mp53/Ras—7.5×10^5, HT-29 —1.5×10^6, CAPAN-2 —4×10^6, PANC—4×10^6, and PANC 10.05—2×10^6. Cells were trypsinized, counted and re-suspended in RPMI medium lacking supplements for mp53/Ras, CAPAN-2, and Panc10.05, and DMEM lacking supplements for HT-29 and PANC-1 at a density of 5×10^5/100 ul for mp53/Ras and CAPAN-2 cells, 1.25×10^5/100 ul for HT-29 cells, 5×10^6/100 ul for PANC-1, 2×10^6/100 ul for Panc10.05. Matrigel (BD biosciences) was mixed with PANC-1 and Panc10.05 cell/medium mixture at a 1:1 ratio. Cell mixtures were then injected intra-dermally, bilaterally into the flanks of CD1-Foxn1 nude mice (Uracell) […]) in the following numbers: mp53/Ras cells, HT29 1.25×10^5 cells, 5×10^5 CAPAN-2-cells. Cell mixtures were injected intradermally, bilaterally into the flanks of NOD/SCID (UCAR-20060-166 (1)) mice in the following cell numbers per injection: PANC-1 —2.5×10^6 cells and Panc10.05 —1×10^6 cells. Tumor volume was measured every week for 4 weeks for mp53/Ras and HT-29 cells, 5 weeks for CAPAN-2 cells, and 6 weeks for PANC-1.
Molecule,endocytosis of Alexa488 labeled dextran [1],p62 and LC3 protein levels [2],tumor formation in nude mice [3],tumor formation in nude mice ([3]; listed as DN Rab5a)
B1,inhibits endocytosis of Alexa488 labeled dextran,no effect on p62 or LC3 levels,increased tumor size over vector control,slightly enhanced tumor formation in transformed YAMC cells and no effect on Capan-2 cells
B2,–,p62 and LC3 protein levels were suppressed,tumor inhibitory; also recorded: inhibits tumor formation,–
